From US10688197B2, “Non-alcoholic fatty liver regulator 14-3-3 protein” (Korea University Research and Business Foundation, priority 2015, dated 2020)

How the values were obtained:
[1] = biological target: T1, binding between PPARγ2 and 14-3-3γ (Homo sapiens, UniProt P37231); test: GST-pull down assay, binding between PPARγ2 and 14-3-3γ (HEK-293T)
T1 construct: expressed in transfected cells; host or cells: HEK-293T
T1 sequence (P37231 1-505): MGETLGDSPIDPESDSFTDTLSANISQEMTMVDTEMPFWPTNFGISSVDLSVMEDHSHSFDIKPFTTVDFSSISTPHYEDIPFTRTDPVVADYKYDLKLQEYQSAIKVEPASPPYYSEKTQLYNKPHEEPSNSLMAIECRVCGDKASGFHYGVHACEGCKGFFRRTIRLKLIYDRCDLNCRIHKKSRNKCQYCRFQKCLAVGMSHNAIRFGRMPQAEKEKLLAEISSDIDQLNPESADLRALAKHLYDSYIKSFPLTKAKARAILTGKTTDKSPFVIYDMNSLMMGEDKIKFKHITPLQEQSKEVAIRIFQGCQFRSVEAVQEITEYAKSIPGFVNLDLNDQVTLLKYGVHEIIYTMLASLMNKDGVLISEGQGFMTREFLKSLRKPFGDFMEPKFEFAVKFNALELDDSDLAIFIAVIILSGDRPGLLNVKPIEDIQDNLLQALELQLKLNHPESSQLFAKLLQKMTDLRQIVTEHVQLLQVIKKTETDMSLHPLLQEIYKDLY
Experimental: After transfection, […], washed with ice-cold PBS, and lysed using 500 μl/well of a lysis buffer (150 mM NaCl, 1 mM EDTA, 1% Nonidet P-40, 5% glycerol, 25 mM tris-HCl, pH 7.5, protease inhibitor added), and the lysed cells were centrifuged at 10,000×g and 4° C. for 10 minutes to extract proteins. Thereafter, 1,000 μg of the proteins was reacted with 20 μl of glutathione Sepharose 4B beads (GE Healthcare, Buckinghamshire, UK) for 6 hours, and then washing of the beads with 1 ml of ice-cold PBS was repeated 5 times, and the beads were boiled at 100° C. for 10 minutes, followed by 10% SDS-PAGE gel separation and western blotting. A ratio of GST antibodies (Santa Cruz) to Myc antibodies (self-production) was 1:3000. The detection of each protein was performed using West Pico ECL (Thermo scientific, Rockford, Ill.) and identified in a darkroom.
After transfection, […], washed with ice-cold PBS, and lysed using 500 μl/well of a lysis buffer (150 mM NaCl, 1 mM EDTA, 1% Nonidet P-40, 5% glycerol, 25 mM tris-HCl, pH 7.5, protease inhibitor added), and the lysed cells were centrifuged at 10,000×g and 4° C. for 10 minutes to extract proteins. […]

[2] = biological target: T2, PPARγ2 deletion mutant (139-505) (Homo sapiens, UniProt P37231); test: GST-pull down assay with PPARγ2 deletion mutant (139-505); assay type: binding; conditions: FIG. 3B/3C
T2 construct: Flag-PPARγ2 (139-505) DNA (4 μg); expressed in transfected cells; host or cells: HEK-293T
T2 sequence (P37231 139-505): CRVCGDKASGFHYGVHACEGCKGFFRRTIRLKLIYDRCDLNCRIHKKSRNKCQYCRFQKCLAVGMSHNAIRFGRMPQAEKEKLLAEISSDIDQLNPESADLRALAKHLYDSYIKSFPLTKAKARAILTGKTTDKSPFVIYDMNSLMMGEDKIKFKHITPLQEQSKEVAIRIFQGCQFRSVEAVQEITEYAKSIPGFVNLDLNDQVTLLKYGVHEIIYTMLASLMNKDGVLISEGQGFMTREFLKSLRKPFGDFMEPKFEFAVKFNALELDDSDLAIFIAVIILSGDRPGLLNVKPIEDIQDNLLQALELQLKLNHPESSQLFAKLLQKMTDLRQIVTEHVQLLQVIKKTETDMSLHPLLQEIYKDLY
Experimental: HEK-293T cells were seeded in a 100 mm plate at a density of 2×10^6 cells per each well, and then transfected with Flag-PPARγ2 (1-505) DNA (4 μg), Flag-PPARγ2 (1-310) DNA (4 μg), Flag-PPARγ2 (139-505) DNA (4 μg), and mGST-14-3-3β (4 μg) or mGST-14-3-3γ (4 μg) using an E-fection plus reagent (Lugen). For Flag-PPARγ2 (1-310) DNA and Flag-PPARγ2 (139-505) DNA, DNA fragments amplified through polymerase chain reaction (PCR) were cloned into a pCMV-3Tag-1 vector using restriction enzymes XhoI and ApaI. A ratio of DNA to the E-fection plus reagent was 1:2, and this method was performed according to a manufacturer's manual. The corresponding cells were washed with ice-cold PBS and lysed using 500 μl/well of a lysis buffer (150 mM NaCl, 1 mM EDTA, 1% Nonidet P-40, 5% glycerol, 25 mM tris-HCl, pH 7.5, protease inhibitor added), and the lysed cells were centrifuged at 10,000×g and 4° C. for 10 minutes to extract proteins. Thereafter, 1,000 μg of the proteins was reacted with 20 μl of glutathione Sepharose 4B beads (GE Healthcare, Buckinghamshire, UK) for 6 hours, and then washing of the beads with 1 ml of ice-cold PBS was repeated 5 times, and the beads were boiled at 100° C. for 10 minutes, followed by 10% SDS-PAGE gel separation and western blotting. A ratio of GST antibodies (Santa Cruz) to Flag antibodies (Santa Cruz) was 1:3000. […]

## CCCCCCCC/C=C\CCCCCCCC(=O)O [oleic acid]
[1]; 200 μM oleic acid 72 hours, FIG. 8B
  binding between PPARγ2 and 14-3-3γ: reduced

## 14-3-3β: 14-3-3 isoform protein overexpressed by DNA transfection; increases the transcriptional activity of PPARγ2 by binding to PPARγ2
[1]; expression amount of 14-3-3β increased (HA-14-3-3β DNA 2 and 4 μg), FIG. 5B
  binding between 14-3-3γ and PPARγ2: reduced
[2]
  binding to PPARγ2 deletion mutant (139-505): bound

## 14-3-3γ: 14-3-3 isoform protein overexpressed by DNA transfection; decreases the transcriptional activity of PPARγ2; proposed active ingredient
[2]
  binding to PPARγ2 deletion mutant (139-505): bound
